This note sets out measurements from patent publication US20060228334A1.

The target of the test is coxsackievirus-adenovirus receptor (CAR) on 293 cells (human) (UniProt P78310). Kind of test: cell-based or functional assay.
Sequence of UniProt P78310 (P78310 20-365): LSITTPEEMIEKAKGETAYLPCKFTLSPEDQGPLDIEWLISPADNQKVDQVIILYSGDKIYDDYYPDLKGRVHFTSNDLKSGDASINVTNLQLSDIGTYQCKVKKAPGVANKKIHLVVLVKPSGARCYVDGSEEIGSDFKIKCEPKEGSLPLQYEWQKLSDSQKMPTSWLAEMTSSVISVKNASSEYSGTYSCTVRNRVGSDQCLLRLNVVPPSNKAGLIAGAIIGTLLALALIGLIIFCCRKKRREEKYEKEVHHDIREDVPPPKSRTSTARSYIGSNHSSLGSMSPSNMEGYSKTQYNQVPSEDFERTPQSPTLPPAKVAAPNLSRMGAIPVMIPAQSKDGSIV
“Ad5 fiber Ala406Lys (virus Ad-LacZ/Fb-Ala406Lys) (from UniProt P11818 1-581)” yielded an IU/Particle (infectious units titrated on 293 cells per particle) of 0.000125 IU/Particle.

Turning to “Ad5 fiber Lys506Gln/His508Lys (virus Ad-LacZ/Fb-Lys506Q/His508Lys) (from UniProt P11818 1-581)”, the IU/Particle (infectious units titrated on 293 cells per particle) turned out to be 0.000769 IU/Particle.

On to “Ad5 fiber Ser408Glu (virus Ad-LacZ/Fb-S408E) (from UniProt P11818 1-581)”, for which the IU/Particle (infectious units titrated on 293 cells per particle) was found to be 9.54e-05 IU/Particle.

“Ad5 fiber Ser408Glu and Lys506Gln/His508Lys (virus Ad-LacZ/Fb-S408E/K506Q/H508K) (from UniProt P11818 1-581)” displayed an IU/Particle (infectious units titrated on 293 cells per particle) of 0.00025 IU/Particle.

“Ad5 fiber Ser408Glu and Ser555Lys (virus Ad-LacZ/Fb-S408E/S555K) (from UniProt P11818 1-581)” displayed an IU/Particle (infectious units titrated on 293 cells per particle) of 6.38e-05 IU/Particle.

Substance “Ad5 fiber Ser408Glu and Val452Lys (virus Ad-LacZ/Fb-S408E/V452K) (from UniProt P11818 1-581)” gave an IU/Particle (infectious units titrated on 293 cells per particle) of 9.57e-05 IU/Particle.

Turning to “Ad5 fiber Ser555Lys (virus Ad-LacZ/Fb-Ser555Lys) (from UniProt P11818 1-581)”, the IU/Particle (infectious units titrated on 293 cells per particle) is 0.025 IU/Particle.

“Ad5 fiber Thr404Gly (virus Ad-LacZ/Fb-Thr404gly) (from UniProt P11818 1-581)” gave an IU/Particle (infectious units titrated on 293 cells per particle) of 8.33e-05 IU/Particle.

For the substance “Ad5 fiber Val452Lys (virus Ad-LacZ/Fb-Val452Lys) (from UniProt P11818 1-581)”, the IU/Particle (infectious units titrated on 293 cells per particle) stood at 0.002 IU/Particle.

For “wild-type Ad5 fiber protein (as carried by the Ad-LacZ virus) (from UniProt P11818 1-581)”, the IU/Particle (infectious units titrated on 293 cells per particle) is 0.025 IU/Particle and the inhibition of infection of 293 cells by 10 ug/ml recombinant Ad5 knob (FIG. 2) was 90%.
